# Target: HLA-A*24 (human)
# Assay: UV-ligand exchange, anti-b2m ELISA
row,Binder,peptide exchange yield [%]
1,NYINRILKL [SEQ ID NO: 167 peptide …],> 75
2,AYTLIAPNI [SEQ ID NO: 169 peptide …],50 to 75
3,YYVESGKLF [SEQ ID NO: 166 peptide …],> 75
4,EYSLFPGQVVI [SEQ ID NO: 197 peptide …],50 to 75
5,IYATEAHVF [SEQ ID NO: 201 peptide …],50 to 75
6,HYSQELSLLYL [SEQ ID NO: 158 peptide …],> 75
7,LYIDRPLPYL [SEQ ID NO: 196 peptide …],50 to 75
8,VYEDQVGKF [SEQ ID NO: 170 peptide …],20 to 49
9,RYAEEVGIF [SEQ ID NO: 199 peptide …],50 to 75
10,EYNQWFTKL [SEQ ID NO: 176 peptide …],50 to 75
11,IYLVSIPEL [SEQ ID NO: 161 peptide …],> 75
12,YYGPSLFLL [SEQ ID NO: 200 peptide …],50 to 75
13,VYVGGGQIIHL [SEQ ID NO: 174 peptide …],50 to 75
14,TYSVSFPMF [SEQ ID NO: 195 peptide …],> 75
15,VFTRVSSFL [SEQ ID NO: 162 peptide …],50 to 75
16,VYWDSAGAAHF [SEQ ID NO: 202 peptide …],> 75
17,LFIPSSKLLFL [SEQ ID NO: 171 peptide …],50 to 75
18,IYSWILDHF [SEQ ID NO: 173 peptide …],> 75
19,DYLKGLASF [SEQ ID NO: 163 peptide …],> 75
20,DYTTWTALL [SEQ ID NO: 165 peptide …],> 75
21,KYQDILETI [SEQ ID NO: 168 peptide …],> 75
22,KFSSFSLFF [SEQ ID NO: 164 peptide …],50 to 75
23,LYNKGFIYL [SEQ ID NO: 159 peptide …],> 75
24,VYTLDIPVL [SEQ ID NO: 160 peptide …],> 75
25,YYEVHKELF [SEQ ID NO: 175 peptide …],> 75

# Next, values leading:
row,peptide exchange yield [%],Binder
1,20 to 49,AYVVFVSTL [SEQ ID NO: 207 peptide …]
2,> 75,VYQGHTALL [SEQ ID NO: 277 peptide …]
3,50 to 75,HYPPVQVLF [SEQ ID NO: 285 peptide …]
4,50 to 75,TYKDEGNDYF [SEQ ID NO: 209 peptide …]
5,50 to 75,YYKSTSSAF [SEQ ID NO: 218 peptide …]
6,50 to 75,YFIDSTNLKTHF [SEQ ID NO: 269 peptide …]
7,50 to 75,QYLGQIQHI [SEQ ID NO: 268 peptide …]
8,50 to 75,TFSVSSHLF [SEQ ID NO: 222 peptide …]
9,> 75,TYELRYFQI [SEQ ID NO: 204 peptide …]
10,50 to 75,NYYEVHKELF [SEQ ID NO: 270 peptide …]
11,20 to 49,PYRLIFEKF [SEQ ID NO: 281 peptide …]
12,50 to 75,LYITEPKTI [SEQ ID NO: 287 peptide …]

# Reference: US20170189504A1
